Results taken from patent US9062100B2, “Anti-human TROP-2 antibody having anti-tumor activity in vivo” (LIVTECH, INC., dated 2015).
Where no end group is shown, it is not given here.

Columns and labels:
human TROP-2 (hTROP-2) [1] = biological target: T1, human TROP-2 (hTROP-2) (human); experiment: FACS on PK-59 cells
T1 chain: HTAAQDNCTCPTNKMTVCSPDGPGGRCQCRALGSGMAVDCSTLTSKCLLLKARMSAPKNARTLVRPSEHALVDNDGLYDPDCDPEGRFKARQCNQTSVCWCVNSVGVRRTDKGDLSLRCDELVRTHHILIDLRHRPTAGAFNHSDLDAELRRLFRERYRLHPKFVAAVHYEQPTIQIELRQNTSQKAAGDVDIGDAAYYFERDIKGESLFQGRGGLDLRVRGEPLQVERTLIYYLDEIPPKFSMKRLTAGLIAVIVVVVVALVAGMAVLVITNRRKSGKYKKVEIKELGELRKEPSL

human TROP-2 (hTROP-2) [2] = biological target: T1, human TROP-2 (hTROP-2); experiment: FACS on BxPC-3 cells
Table 7 peptide No. 1 = biological target: T2, Table 7 peptide No. 1 (human); experiment: PEPSCAN CLIPS peptide ELISA
T2 peptide: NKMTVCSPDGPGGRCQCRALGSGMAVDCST

Table 7 peptide No. 2 = biological target: T3, Table 7 peptide No. 2 (human); experiment: PEPSCAN CLIPS peptide ELISA
T3 peptide: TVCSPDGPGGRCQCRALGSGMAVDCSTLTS

Table 7 peptide No. 3 = biological target: T4, Table 7 peptide No. 3 (human, not fully specified); experiment: PEPSCAN CLIPS peptide ELISA
T4 peptide: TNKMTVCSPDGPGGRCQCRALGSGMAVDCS

Table 7 peptide No. 4 = biological target: T5, Table 7 peptide No. 4 (human, not fully specified); experiment: PEPSCAN CLIPS peptide ELISA
T5 peptide: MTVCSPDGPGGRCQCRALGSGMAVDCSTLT

Table 7 peptide No. 6 = biological target: T6, Table 7 peptide No. 6 (human, not fully specified); experiment: PEPSCAN CLIPS peptide ELISA
T6 peptide: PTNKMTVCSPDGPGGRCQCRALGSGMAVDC

Table 7 peptide No. 7 = biological target: T7, Table 7 peptide No. 7 (human, not fully specified); experiment: PEPSCAN CLIPS peptide ELISA
T7 peptide: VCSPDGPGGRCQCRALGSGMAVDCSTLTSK

Table 7 peptide No. 8 = biological target: T8, Table 7 peptide No. 8 (human, not fully specified); experiment: PEPSCAN CLIPS peptide ELISA
T8 peptide: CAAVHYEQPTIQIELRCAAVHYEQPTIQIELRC

Table 7 peptide No. 9 = biological target: T9, Table 7 peptide No. 9 (human, not fully specified); experiment: PEPSCAN CLIPS peptide ELISA
T9 peptide: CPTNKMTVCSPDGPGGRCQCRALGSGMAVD

Table 7 peptide No. 10 = biological target: T10, Table 7 peptide No. 10 (human); experiment: PEPSCAN CLIPS peptide ELISA
T10 peptide: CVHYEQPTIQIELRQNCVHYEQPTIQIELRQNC

Table 7 peptide No. 11 = biological target: T11, Table 7 peptide No. 11 (human); experiment: PEPSCAN CLIPS peptide ELISA
T11 peptide: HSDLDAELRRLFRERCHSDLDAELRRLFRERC

Table 7 peptide No. 12 = biological target: T12, Table 7 peptide No. 12 (human); experiment: PEPSCAN CLIPS peptide ELISA
T12 peptide: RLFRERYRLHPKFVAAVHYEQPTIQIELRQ

Table 7 peptide No. 13 = biological target: T13, Table 7 peptide No. 13 (human); experiment: PEPSCAN CLIPS peptide ELISA
T13 peptide: AVHYEQPTIQIELRQ

Table 7 peptide No. 14 = biological target: T14, Table 7 peptide No. 14 (human); experiment: PEPSCAN CLIPS peptide ELISA
T14 peptide: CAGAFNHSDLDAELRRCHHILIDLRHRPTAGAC

Table 7 peptide No. 15 = biological target: T15, Table 7 peptide No. 15 (human); experiment: PEPSCAN CLIPS peptide ELISA
T15 peptide: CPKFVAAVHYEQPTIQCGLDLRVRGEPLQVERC

Table 7 peptide No. 16 = biological target: T16, Table 7 peptide No. 16 (human); experiment: PEPSCAN CLIPS peptide ELISA
T16 peptide: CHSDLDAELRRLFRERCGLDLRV

Table 7 peptide No. 17 = biological target: T17, Table 7 peptide No. 17 (human); experiment: PEPSCAN CLIPS peptide ELISA
T17 peptide: FQGRGGLDLRVRGEP

Table 7 peptide No. 18 = biological target: T18, Table 7 peptide No. 18 (human); experiment: PEPSCAN CLIPS peptide ELISA
T18 peptide: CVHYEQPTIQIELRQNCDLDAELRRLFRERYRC

Table 7 peptide No. 19 = biological target: T19, Table 7 peptide No. 19 (human); experiment: PEPSCAN CLIPS peptide ELISA
T19 peptide: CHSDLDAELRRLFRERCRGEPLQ

Table 7 peptide No. 20 = biological target: T20, Table 7 peptide No. 20 (human); experiment: PEPSCAN CLIPS peptide ELISA
T20 peptide: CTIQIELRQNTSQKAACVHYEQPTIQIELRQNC

Table 7 peptide No. 21 = biological target: T21, Table 7 peptide No. 21 (human); experiment: PEPSCAN CLIPS peptide ELISA
T21 peptide: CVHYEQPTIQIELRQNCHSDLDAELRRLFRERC

Table 7 peptide No. 22 = biological target: T22, Table 7 peptide No. 22 (human); experiment: PEPSCAN CLIPS peptide ELISA
T22 peptide: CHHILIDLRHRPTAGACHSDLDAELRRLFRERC

Table 7 peptide No. 23 = biological target: T23, Table 7 peptide No. 23 (human, not fully specified); experiment: PEPSCAN CLIPS peptide ELISA
T23 peptide: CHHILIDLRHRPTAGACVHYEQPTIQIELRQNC

Table 7 peptide No. 24 = biological target: T24, Table 7 peptide No. 24 (human, not fully specified); experiment: PEPSCAN CLIPS peptide ELISA
T24 peptide: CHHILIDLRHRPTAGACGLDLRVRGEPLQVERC

Table 7 peptide No. 25 = biological target: T25, Table 7 peptide No. 25 (human, not fully specified); experiment: PEPSCAN CLIPS peptide ELISA
T25 peptide: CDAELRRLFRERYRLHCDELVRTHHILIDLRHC

Table 7 peptide No. 26 = biological target: T26, Table 7 peptide No. 26 (human, not fully specified; cysteine pairing not given here); experiment: PEPSCAN CLIPS peptide ELISA
T26 peptide: CVHYEQPTIQIELRQNC

Table 7 peptide No. 27 = biological target: T27, Table 7 peptide No. 27 (human, not fully specified); experiment: PEPSCAN CLIPS peptide ELISA
T27 peptide: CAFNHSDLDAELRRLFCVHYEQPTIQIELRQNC

Table 7 peptide No. 28 = biological target: T28, Table 7 peptide No. 28 (human, not fully specified); experiment: PEPSCAN CLIPS peptide ELISA
T28 peptide: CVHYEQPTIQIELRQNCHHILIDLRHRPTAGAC

Table 7 peptide No. 29 = biological target: T29, Table 7 peptide No. 29 (human, not fully specified); experiment: PEPSCAN CLIPS peptide ELISA
T29 peptide: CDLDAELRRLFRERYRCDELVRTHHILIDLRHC

Table 7 peptide No. 30 = biological target: T30, Table 7 peptide No. 30 (human, not fully specified); experiment: PEPSCAN CLIPS peptide ELISA
T30 peptide: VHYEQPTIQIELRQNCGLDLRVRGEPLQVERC

Table 7 peptide No. 31 = biological target: T31, Table 7 peptide No. 31 (human, not fully specified); experiment: PEPSCAN CLIPS peptide ELISA
T31 peptide: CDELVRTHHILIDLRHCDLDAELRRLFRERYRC

Table 7 peptide No. 32 = biological target: T32, Table 7 peptide No. 32 (human, not fully specified); experiment: PEPSCAN CLIPS peptide ELISA
T32 peptide: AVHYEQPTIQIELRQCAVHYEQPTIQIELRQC

Table 7 peptide No. 33 = biological target: T33, Table 7 peptide No. 33 (human, not fully specified); experiment: PEPSCAN CLIPS peptide ELISA
T33 peptide: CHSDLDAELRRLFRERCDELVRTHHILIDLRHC

[3] = biological target: T34, recombinant protein of the extracellular region of hTROP-2 (human); experiment: ELISA of free antibody after equilibration with antigen in solution
T34 sequence: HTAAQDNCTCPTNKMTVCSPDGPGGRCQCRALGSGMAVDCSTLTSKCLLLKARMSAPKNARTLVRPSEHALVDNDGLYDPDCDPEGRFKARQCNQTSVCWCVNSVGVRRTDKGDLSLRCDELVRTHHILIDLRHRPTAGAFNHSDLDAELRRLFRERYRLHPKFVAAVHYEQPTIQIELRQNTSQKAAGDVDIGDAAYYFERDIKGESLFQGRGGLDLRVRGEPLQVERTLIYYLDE

mean fluorescence intensity, times that with PE-labeled anti-mouse IgG only (human TROP-2 (hTROP-2) [1]): 44 times
mean fluorescence intensity, times that with PE-labeled anti-mouse IgG only (human TROP-2 (hTROP-2) [2]): 45 times
binding of K5-70 (Table 7 peptide No. 1): 2740
binding of K5-70 (Table 7 peptide No. 2): 2600
binding of K5-70 (Table 7 peptide No. 3): 2560
binding of K5-70 (Table 7 peptide No. 4): 2400
binding of K5-70 (Table 7 peptide No. 6): 1390
binding of K5-70 (Table 7 peptide No. 7): 932
binding of K5-70 (Table 7 peptide No. 8): 876
binding of K5-70 (Table 7 peptide No. 9): 839
binding of K5-70 (Table 7 peptide No. 10): 825
binding of K5-70 (Table 7 peptide No. 11): 725
binding of K5-70 (Table 7 peptide No. 12): 687
binding of K5-70 (Table 7 peptide No. 13): 642
binding of K5-70 (Table 7 peptide No. 14): 624
binding of K5-70 (Table 7 peptide No. 15): 579
binding of K5-70 (Table 7 peptide No. 16): 538
binding of K5-70 (Table 7 peptide No. 17): 538
binding of K5-70 (Table 7 peptide No. 18): 524
binding of K5-70 (Table 7 peptide No. 19): 519
binding of K5-70 (Table 7 peptide No. 20): 513
binding of K5-70 (Table 7 peptide No. 21): 511
binding of K5-70 (Table 7 peptide No. 22): 489
binding of K5-70 (Table 7 peptide No. 23): 489
binding of K5-70 (Table 7 peptide No. 24): 488
binding of K5-70 (Table 7 peptide No. 25): 483
binding of K5-70 (Table 7 peptide No. 26): 483
binding of K5-70 (Table 7 peptide No. 27): 478
binding of K5-70 (Table 7 peptide No. 28): 473
binding of K5-70 (Table 7 peptide No. 29): 472
binding of K5-70 (Table 7 peptide No. 30): 470
binding of K5-70 (Table 7 peptide No. 31): 469
binding of K5-70 (Table 7 peptide No. 32): 468
binding of K5-70 (Table 7 peptide No. 33): 466
Kd [3]: 6.8 pM
B1: anti-hTROP-2 monoclonal antibody K5-70 (antibody, V domains shown)
VH: QVQLQQPGAELVRPGASVKLSCKASGYTFTIYWINWVKQRPGQGLEWIGNIYPSDSYTNYNQKFKDKATLTVDKSSSTAYMQLSSPTSEDSAVYYCTRTSMADYWGQGTTLTVSS
VL: DILLTQSPAILSVSPGERVSFSCRASQSIGTSIHWYQQRTNGSPRLLIKYASESISGIPSRFSGSGSGTDFTLSINSVESEDIADYYCQQSNSWPFTFGSGTKLEIK
